According to patent US20220306695A1, “COMPSTATIN ANALOGUES AND THEIR MEDICAL USES” (priority 2019, published 2022):
Starred links: 1 amine or outer side, 2 acyl side, 3 side chain; linkers in the order of their positions; H or OH if unused. Positions of bridges follow the written chain, without caps; N, C: chain ends. Non-standard residues stand in square brackets, D forms with d. Groups on a side chain read outwards from the residue. *: point of attachment. Trp(1-Me) = Cn1cc(C[C@H](N)C(=O)O)c2ccccc21; C18 diacid = O=C(O)CCCCCCCCCCCCCCCCC(=O)*; γGlu = O=C(O)[C@H](CCC(=O)[*:2])N[*:1]; hCys = N[C@@H](CCS)C(=O)O; AEEA = NCCOCCOCC(=O)O; Sar = CNCC(=O)O

B1: Compound 166 (peptide)
peptide: Ac-SEF[hCys]I[Trp(1-Me)]QDW[Sar]EHRA[Sar]EGE[AEEA]ESK([γGlu-Gly-γGlu-C18 diacid])-NH2
modifications: thioether 4-14
SMILES: CC[C@H](C)[C@@H]1NC(=O)[C@@H](NC(=O)[C@H](Cc2ccccc2)NC(=O)[C@H](CCC(=O)O)NC(=O)[C@H](CO)NC(C)=O)CCSC[C@@H](C(=O)N(C)CC(=O)N[C@@H](CCC(=O)O)C(=O)NCC(=O)N[C@@H](CCC(=O)O)C(=O)NCCOCCOCC(=O)N[C@@H](CCC(=O)O)C(=O)N[C@@H](CO)C(=O)N[C@@H](CCCCNC(=O)CC[C@H](NC(=O)CNC(=O)CC[C@H](NC(=O)CCCCCCCCCCCCCCCCC(=O)O)C(=O)O)C(=O)O)C(N)=O)NC(=O)[C@H](CCCNC(=N)N)NC(=O)[C@H](Cc2c[nH]cn2)NC(=O)[C@H](CCC(=O)O)NC(=O)CN(C)C(=O)[C@H](Cc2c[nH]c3ccccc23)NC(=O)[C@H](CC(=O)O)NC(=O)[C@H](CCC(N)=O)NC(=O)[C@H](Cc2cn(C)c3ccccc23)NC1=O
B2: Compound 151 (peptide)
peptide: Ac-SEFAI[Trp(1-Me)]QDWGEHR[hCys]TGAES-NH2
modifications: thioether 4-14
SMILES: CC[C@H](C)[C@@H]1NC(=O)[C@@H](NC(=O)[C@H](Cc2ccccc2)NC(=O)[C@H](CCC(=O)O)NC(=O)[C@H](CO)NC(C)=O)CSCC[C@@H](C(=O)N[C@H](C(=O)NCC(=O)N[C@@H](C)C(=O)N[C@@H](CCC(=O)O)C(=O)N[C@@H](CO)C(N)=O)[C@@H](C)O)NC(=O)[C@H](CCCNC(=N)N)NC(=O)[C@H](Cc2c[nH]cn2)NC(=O)[C@H](CCC(=O)O)NC(=O)CNC(=O)[C@H](Cc2c[nH]c3ccccc23)NC(=O)[C@H](CC(=O)O)NC(=O)[C@H](CCC(N)=O)NC(=O)[C@H](Cc2cn(C)c3ccccc23)NC1=O
B3: Compound 14 (peptide)
peptide: Ac-ESSAICIWQDWGEHRCTGAES-NH2
modifications: disulfide 6-16
SMILES: CC[C@H](C)[C@H](NC(=O)[C@H](C)NC(=O)[C@H](CO)NC(=O)[C@H](CO)NC(=O)[C@H](CCC(=O)O)NC(C)=O)C(=O)N[C@H]1CSSC[C@@H](C(=O)N[C@H](C(=O)NCC(=O)N[C@@H](C)C(=O)N[C@@H](CCC(=O)O)C(=O)N[C@@H](CO)C(N)=O)[C@@H](C)O)NC(=O)[C@H](CCCNC(=N)N)NC(=O)[C@H](Cc2c[nH]cn2)NC(=O)[C@H](CCC(=O)O)NC(=O)CNC(=O)[C@H](Cc2c[nH]c3ccccc23)NC(=O)[C@H](CC(=O)O)NC(=O)[C@H](CCC(N)=O)NC(=O)[C@H](Cc2c[nH]c3ccccc23)NC(=O)[C@H]([C@@H](C)CC)NC1=O
B4: Compound 16 (peptide)
peptide: Ac-ICIWQEWGEHRCT-NH2
modifications: disulfide 2-12
SMILES: CC[C@H](C)[C@H](NC(C)=O)C(=O)N[C@H]1CSSC[C@@H](C(=O)N[C@H](C(N)=O)[C@@H](C)O)NC(=O)[C@H](CCCNC(=N)N)NC(=O)[C@H](Cc2c[nH]cn2)NC(=O)[C@H](CCC(=O)O)NC(=O)CNC(=O)[C@H](Cc2c[nH]c3ccccc23)NC(=O)[C@H](CCC(=O)O)NC(=O)[C@H](CCC(N)=O)NC(=O)[C@H](Cc2c[nH]c3ccccc23)NC(=O)[C@H]([C@@H](C)CC)NC1=O
B5: Compound 9 (peptide)
peptide: Ac-YCIWQDWGEHRCT-NH2
modifications: disulfide 2-12
SMILES: CC[C@H](C)[C@@H]1NC(=O)[C@@H](NC(=O)[C@H](Cc2ccc(O)cc2)NC(C)=O)CSSC[C@@H](C(=O)N[C@H](C(N)=O)[C@@H](C)O)NC(=O)[C@H](CCCNC(=N)N)NC(=O)[C@H](Cc2c[nH]cn2)NC(=O)[C@H](CCC(=O)O)NC(=O)CNC(=O)[C@H](Cc2c[nH]c3ccccc23)NC(=O)[C@H](CC(=O)O)NC(=O)[C@H](CCC(N)=O)NC(=O)[C@H](Cc2c[nH]c3ccccc23)NC1=O
B6: Compound 144 (peptide)
peptide: Ac-SEFCI[Trp(1-Me)]QDW[Sar]EHRC[Sar]E[AEEA][AEEA]K([γGlu-Gly-γGlu-C18 diacid])-NH2
modifications: disulfide 4-14
SMILES: CC[C@H](C)[C@@H]1NC(=O)[C@@H](NC(=O)[C@H](Cc2ccccc2)NC(=O)[C@H](CCC(=O)O)NC(=O)[C@H](CO)NC(C)=O)CSSC[C@@H](C(=O)N(C)CC(=O)N[C@@H](CCC(=O)O)C(=O)NCCOCCOCC(=O)NCCOCCOCC(=O)N[C@@H](CCCCNC(=O)CC[C@H](NC(=O)CNC(=O)CC[C@H](NC(=O)CCCCCCCCCCCCCCCCC(=O)O)C(=O)O)C(=O)O)C(N)=O)NC(=O)[C@H](CCCNC(=N)N)NC(=O)[C@H](Cc2c[nH]cn2)NC(=O)[C@H](CCC(=O)O)NC(=O)CN(C)C(=O)[C@H](Cc2c[nH]c3ccccc23)NC(=O)[C@H](CC(=O)O)NC(=O)[C@H](CCC(N)=O)NC(=O)[C@H](Cc2cn(C)c3ccccc23)NC1=O
B7: Compound 10 (peptide)
peptide: Ac-ESSAYCIWQDWGEHRCT-NH2
modifications: disulfide 6-16
SMILES: CC[C@H](C)[C@@H]1NC(=O)[C@@H](NC(=O)[C@H](Cc2ccc(O)cc2)NC(=O)[C@H](C)NC(=O)[C@H](CO)NC(=O)[C@H](CO)NC(=O)[C@H](CCC(=O)O)NC(C)=O)CSSC[C@@H](C(=O)N[C@H](C(N)=O)[C@@H](C)O)NC(=O)[C@H](CCCNC(=N)N)NC(=O)[C@H](Cc2c[nH]cn2)NC(=O)[C@H](CCC(=O)O)NC(=O)CNC(=O)[C@H](Cc2c[nH]c3ccccc23)NC(=O)[C@H](CC(=O)O)NC(=O)[C@H](CCC(N)=O)NC(=O)[C@H](Cc2c[nH]c3ccccc23)NC1=O
B8: Compound 161 (peptide)
peptide: Ac-EFAI[Trp(1-Me)]QDWGEHR[hCys]EGEK([γGlu-Gly-γGlu-C18 diacid])-NH2
modifications: thioether 3-13
SMILES: CC[C@H](C)[C@@H]1NC(=O)[C@@H](NC(=O)[C@H](Cc2ccccc2)NC(=O)[C@H](CCC(=O)O)NC(C)=O)CSCC[C@@H](C(=O)N[C@@H](CCC(=O)O)C(=O)NCC(=O)N[C@@H](CCC(=O)O)C(=O)N[C@@H](CCCCNC(=O)CC[C@H](NC(=O)CNC(=O)CC[C@H](NC(=O)CCCCCCCCCCCCCCCCC(=O)O)C(=O)O)C(=O)O)C(N)=O)NC(=O)[C@H](CCCNC(=N)N)NC(=O)[C@H](Cc2c[nH]cn2)NC(=O)[C@H](CCC(=O)O)NC(=O)CNC(=O)[C@H](Cc2c[nH]c3ccccc23)NC(=O)[C@H](CC(=O)O)NC(=O)[C@H](CCC(N)=O)NC(=O)[C@H](Cc2cn(C)c3ccccc23)NC1=O
B9: Compound 12 (peptide)
peptide: Ac-ICIWQDWGAHRCE-NH2
modifications: disulfide 2-12
SMILES: CC[C@H](C)[C@H](NC(C)=O)C(=O)N[C@H]1CSSC[C@@H](C(=O)N[C@@H](CCC(=O)O)C(N)=O)NC(=O)[C@H](CCCNC(=N)N)NC(=O)[C@H](Cc2c[nH]cn2)NC(=O)[C@H](C)NC(=O)CNC(=O)[C@H](Cc2c[nH]c3ccccc23)NC(=O)[C@H](CC(=O)O)NC(=O)[C@H](CCC(N)=O)NC(=O)[C@H](Cc2c[nH]c3ccccc23)NC(=O)[C@H]([C@@H](C)CC)NC1=O

Each binder was assayed against Human C3 (human, UniProt P01024 23-1663) (assay: cell-based or functional assay).
Human C3, sequence (P01024 23-1663 limits assumed): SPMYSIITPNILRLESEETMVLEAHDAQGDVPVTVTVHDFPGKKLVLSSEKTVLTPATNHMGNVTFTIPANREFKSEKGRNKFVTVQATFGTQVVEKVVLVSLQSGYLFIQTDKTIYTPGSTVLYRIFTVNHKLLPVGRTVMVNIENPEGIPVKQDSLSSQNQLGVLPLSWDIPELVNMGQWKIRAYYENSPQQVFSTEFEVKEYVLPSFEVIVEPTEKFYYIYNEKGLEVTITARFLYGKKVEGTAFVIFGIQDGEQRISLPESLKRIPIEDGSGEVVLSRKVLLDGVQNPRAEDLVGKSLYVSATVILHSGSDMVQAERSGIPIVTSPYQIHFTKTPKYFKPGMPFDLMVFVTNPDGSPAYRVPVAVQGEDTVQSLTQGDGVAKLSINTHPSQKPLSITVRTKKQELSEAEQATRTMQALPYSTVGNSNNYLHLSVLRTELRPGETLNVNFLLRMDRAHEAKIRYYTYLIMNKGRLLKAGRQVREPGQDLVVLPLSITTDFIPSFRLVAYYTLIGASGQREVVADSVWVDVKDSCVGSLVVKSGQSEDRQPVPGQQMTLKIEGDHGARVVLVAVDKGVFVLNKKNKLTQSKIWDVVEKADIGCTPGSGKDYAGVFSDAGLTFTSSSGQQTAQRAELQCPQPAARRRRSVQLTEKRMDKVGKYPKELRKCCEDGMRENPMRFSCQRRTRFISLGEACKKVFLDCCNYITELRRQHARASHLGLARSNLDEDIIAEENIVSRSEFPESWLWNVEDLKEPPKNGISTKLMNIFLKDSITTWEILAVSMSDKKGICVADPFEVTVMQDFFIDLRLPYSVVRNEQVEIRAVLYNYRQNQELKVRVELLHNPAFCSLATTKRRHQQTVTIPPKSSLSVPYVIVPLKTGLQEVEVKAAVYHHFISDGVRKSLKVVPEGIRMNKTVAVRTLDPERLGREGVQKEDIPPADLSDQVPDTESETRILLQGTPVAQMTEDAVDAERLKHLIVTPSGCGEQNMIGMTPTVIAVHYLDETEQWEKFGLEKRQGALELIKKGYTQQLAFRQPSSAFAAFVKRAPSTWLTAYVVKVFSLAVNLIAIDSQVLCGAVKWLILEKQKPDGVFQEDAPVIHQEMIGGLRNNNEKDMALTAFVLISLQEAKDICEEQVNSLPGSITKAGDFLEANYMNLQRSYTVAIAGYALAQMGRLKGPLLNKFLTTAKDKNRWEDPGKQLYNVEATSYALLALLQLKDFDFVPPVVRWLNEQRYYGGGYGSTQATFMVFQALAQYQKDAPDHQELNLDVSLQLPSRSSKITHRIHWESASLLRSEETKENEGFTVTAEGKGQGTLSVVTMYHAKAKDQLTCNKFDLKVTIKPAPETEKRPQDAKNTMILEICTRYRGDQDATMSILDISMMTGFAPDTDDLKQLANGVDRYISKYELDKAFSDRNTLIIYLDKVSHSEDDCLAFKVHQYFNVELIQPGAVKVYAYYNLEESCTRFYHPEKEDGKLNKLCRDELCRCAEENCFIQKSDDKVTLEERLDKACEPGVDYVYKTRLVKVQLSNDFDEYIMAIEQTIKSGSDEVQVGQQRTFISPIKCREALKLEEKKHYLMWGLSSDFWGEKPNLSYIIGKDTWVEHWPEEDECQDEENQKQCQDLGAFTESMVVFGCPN
For B1, the “IC50[nM], inhibition of hemolysis” value was under 100 nM. With B2 the “IC50[nM], inhibition of hemolysis” value was under 100 nM. With B3 the “IC50[nM], inhibition of hemolysis” value was under 100 nM. In the case of B4, the “IC50[nM], inhibition of hemolysis” value is reported as under 100 nM. B5 was tested, and the “IC50[nM], inhibition of hemolysis” value was under 100 nM. With B6 the “IC50[nM], inhibition of hemolysis” value was under 100 nM. In the case of B7, the “IC50[nM], inhibition of hemolysis” value is reported as under 100 nM. In the case of B8, the “IC50[nM], inhibition of hemolysis” value is reported as under 100 nM. With B9 the “IC50[nM], inhibition of hemolysis” value was under 100 nM.
